The experiment addresses Aβ42 (UniProt P05067 672-713). Nature of the experiment: cell-based or functional assay.

The values that follow come from US20230048960A1 (University of Washington, published 2023).

Square brackets hold non-standard residues; d marks the D form.

Sequence of Aβ42 (P05067 672-713 limits assumed): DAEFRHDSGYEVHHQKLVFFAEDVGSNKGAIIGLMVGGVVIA

B1: AP506d (peptide)
peptide: Ac-[dR]G[dN]W[dN]E[dS]K[dM][dN][dE][dY][dY]G[dW]M[dL]M[dC]T[dM]G[dR]-NH2
modifications: also: disulfide-linked homodimer (Cys19 to Cys19 of other copy), disulfide at 19, other end not in the chain
As for B1, the “% inhibition of fibril formation (ThT), AP:Aβ42 1:1” value turned out to be 100%; the “% inhibition of fibril formation (ThT), AP:Aβ42 1:10” value turned out to be 100%; the “% inhibition of fibril formation (ThT), AP:Aβ42 1:100” value (“% inhibition … AP:Aβ42 1:100” below) worked out at 49.1%.

With Ac-RGE[dM]N[dL]S[dW]MNEYSGW[dT]M[dN]C[dK]MGR-NH2 (also: disulfide-linked homodimer via Cys19) [AP520d], the “% inhibition of fibril formation (ThT), AP:Aβ42 1:1” value was determined as 100%; the “% inhibition of fibril formation (ThT), AP:Aβ42 1:10” value turned out to be 91.2%; the “% inhibition … AP:Aβ42 1:100” value amounted to 45.3%.

B2: AP521d (peptide)
peptide: Ac-RGE[dC]N[dL]S[dW]MNEYSGW[dT]M[dN]M[dK]MGR-NH2
modifications: also: disulfide-linked homodimer (Cys4 to Cys4 of other copy), disulfide at 4, other end not in the chain
In the case of B2, the “% inhibition of fibril formation (ThT), AP:Aβ42 1:1” value was found to be 100%; the “% inhibition of fibril formation (ThT), AP:Aβ42 1:10” value turned out to be 100%; the “% inhibition … AP:Aβ42 1:100” value turned out to be 54.3%.

B3: AP522m (peptide)
peptide: Ac-RGE[dC]N[dL]S[dW]MNEYYGW[dT]M[dN]M[dK]MGR-NH2
SMILES: CSCC[C@H](NC(=O)[C@@H](CCCCN)NC(=O)[C@H](CCSC)NC(=O)[C@@H](CC(N)=O)NC(=O)[C@H](CCSC)NC(=O)[C@H](NC(=O)[C@H](Cc1c[nH]c2ccccc12)NC(=O)CNC(=O)[C@H](Cc1ccc(O)cc1)NC(=O)[C@H](Cc1ccc(O)cc1)NC(=O)[C@H](CCC(=O)O)NC(=O)[C@H](CC(N)=O)NC(=O)[C@H](CCSC)NC(=O)[C@@H](Cc1c[nH]c2ccccc12)NC(=O)[C@H](CO)NC(=O)[C@@H](CC(C)C)NC(=O)[C@H](CC(N)=O)NC(=O)[C@@H](CS)NC(=O)[C@H](CCC(=O)O)NC(=O)CNC(=O)[C@H](CCCNC(=N)N)NC(C)=O)[C@H](C)O)C(=O)NCC(=O)N[C@@H](CCCNC(=N)N)C(N)=O
Consider B3, for which the “% inhibition of fibril formation (ThT), AP:Aβ42 1:1” value is 45.7%; the “% inhibition of fibril formation (ThT), AP:Aβ42 1:10” value was 12.6%; the “% inhibition … AP:Aβ42 1:100” value was 0%.

B4: AP500m (peptide)
peptide: Ac-RGN[dW]N[dE]S[dK]MNEYSGW[dM]L[dM]C[dT]MGR-NH2
SMILES: CSCC[C@H](NC(=O)[C@@H](CCCCN)NC(=O)[C@H](CO)NC(=O)[C@@H](CCC(=O)O)NC(=O)[C@H](CC(N)=O)NC(=O)[C@@H](Cc1c[nH]c2ccccc12)NC(=O)[C@H](CC(N)=O)NC(=O)CNC(=O)[C@H](CCCNC(=N)N)NC(C)=O)C(=O)N[C@@H](CC(N)=O)C(=O)N[C@@H](CCC(=O)O)C(=O)N[C@@H](Cc1ccc(O)cc1)C(=O)N[C@@H](CO)C(=O)NCC(=O)N[C@@H](Cc1c[nH]c2ccccc12)C(=O)N[C@H](CCSC)C(=O)N[C@@H](CC(C)C)C(=O)N[C@H](CCSC)C(=O)N[C@@H](CS)C(=O)N[C@@H](C(=O)N[C@@H](CCSC)C(=O)NCC(=O)N[C@@H](CCCNC(=N)N)C(N)=O)[C@H](C)O
On to B4, for which the “% inhibition of fibril formation (ThT), AP:Aβ42 1:1” value was 76.6%; the “% inhibition of fibril formation (ThT), AP:Aβ42 1:10” value came to 9%; the “% inhibition … AP:Aβ42 1:100” value was determined as 0%.

B5: AP516d (peptide)
peptide: Ac-[dR]G[dE]M[dN]Y[dF]W[dM][dN][dE][dY][dY]G[dW]T[dM]N[dC]K[dM]G[dR]-NH2
modifications: also: disulfide-linked homodimer (Cys19 to Cys19 of other copy), disulfide at 19, other end not in the chain
B5: the “% inhibition of fibril formation (ThT), AP:Aβ42 1:1” value was 100%; the “% inhibition of fibril formation (ThT), AP:Aβ42 1:10” value was 98.2%; the “% inhibition … AP:Aβ42 1:100” value is 51.3%.

B6: AP516m (peptide)
peptide: Ac-[dR]G[dE]M[dN]Y[dF]W[dM][dN][dE][dY][dY]G[dW]T[dM]N[dC]K[dM]G[dR]-NH2
SMILES: CSCC[C@H](NC(=O)[C@@H](CCC(=O)O)NC(=O)CNC(=O)[C@@H](CCCNC(=N)N)NC(C)=O)C(=O)N[C@H](CC(N)=O)C(=O)N[C@@H](Cc1ccc(O)cc1)C(=O)N[C@H](Cc1ccccc1)C(=O)N[C@@H](Cc1c[nH]c2ccccc12)C(=O)N[C@H](CCSC)C(=O)N[C@H](CC(N)=O)C(=O)N[C@H](CCC(=O)O)C(=O)N[C@H](Cc1ccc(O)cc1)C(=O)N[C@H](Cc1ccc(O)cc1)C(=O)NCC(=O)N[C@H](Cc1c[nH]c2ccccc12)C(=O)N[C@H](C(=O)N[C@H](CCSC)C(=O)N[C@@H](CC(N)=O)C(=O)N[C@H](CS)C(=O)N[C@@H](CCCCN)C(=O)N[C@H](CCSC)C(=O)NCC(=O)N[C@H](CCCNC(=N)N)C(N)=O)[C@@H](C)O
For B6, the “% inhibition of fibril formation (ThT), AP:Aβ42 1:1” value amounted to 76.6%; the “% inhibition of fibril formation (ThT), AP:Aβ42 1:10” value is 56.4%; the “% inhibition … AP:Aβ42 1:100” value came out at 0%.

B7: AP520m (peptide)
peptide: Ac-RGE[dM]N[dL]S[dW]MNEYSGW[dT]M[dN]C[dK]MGR-NH2
SMILES: CSCC[C@H](NC(=O)[C@@H](CCCCN)NC(=O)[C@H](CS)NC(=O)[C@@H](CC(N)=O)NC(=O)[C@H](CCSC)NC(=O)[C@H](NC(=O)[C@H](Cc1c[nH]c2ccccc12)NC(=O)CNC(=O)[C@H](CO)NC(=O)[C@H](Cc1ccc(O)cc1)NC(=O)[C@H](CCC(=O)O)NC(=O)[C@H](CC(N)=O)NC(=O)[C@H](CCSC)NC(=O)[C@@H](Cc1c[nH]c2ccccc12)NC(=O)[C@H](CO)NC(=O)[C@@H](CC(C)C)NC(=O)[C@H](CC(N)=O)NC(=O)[C@@H](CCSC)NC(=O)[C@H](CCC(=O)O)NC(=O)CNC(=O)[C@H](CCCNC(=N)N)NC(C)=O)[C@H](C)O)C(=O)NCC(=O)N[C@@H](CCCNC(=N)N)C(N)=O
As to B7, the “% inhibition of fibril formation (ThT), AP:Aβ42 1:1” value worked out at 47%; the “% inhibition of fibril formation (ThT), AP:Aβ42 1:10” value was 33.1%; the “% inhibition … AP:Aβ42 1:100” value is 0%.

B8: AP521m (peptide)
peptide: Ac-RGE[dC]N[dL]S[dW]MNEYSGW[dT]M[dN]M[dK]MGR-NH2
SMILES: CSCC[C@H](NC(=O)[C@@H](CCCCN)NC(=O)[C@H](CCSC)NC(=O)[C@@H](CC(N)=O)NC(=O)[C@H](CCSC)NC(=O)[C@H](NC(=O)[C@H](Cc1c[nH]c2ccccc12)NC(=O)CNC(=O)[C@H](CO)NC(=O)[C@H](Cc1ccc(O)cc1)NC(=O)[C@H](CCC(=O)O)NC(=O)[C@H](CC(N)=O)NC(=O)[C@H](CCSC)NC(=O)[C@@H](Cc1c[nH]c2ccccc12)NC(=O)[C@H](CO)NC(=O)[C@@H](CC(C)C)NC(=O)[C@H](CC(N)=O)NC(=O)[C@@H](CS)NC(=O)[C@H](CCC(=O)O)NC(=O)CNC(=O)[C@H](CCCNC(=N)N)NC(C)=O)[C@H](C)O)C(=O)NCC(=O)N[C@@H](CCCNC(=N)N)C(N)=O
Regarding B8, the “% inhibition of fibril formation (ThT), AP:Aβ42 1:1” value stood at 74%; the “% inhibition of fibril formation (ThT), AP:Aβ42 1:10” value is 34.6%; the “% inhibition … AP:Aβ42 1:100” value amounted to 0%.
